Article PMC11722290 (bioRxiv, 2025)
One block for each molecule: values may come before it.

B1: Lis1^AAA5 (Lis1 M172K, D192K, Y225A, C226D) (natural protein)
chain: VLSQRQRDELNRAIADYLRSNGYEEAYSVFKKEAELDVNEELDKKYAGLLEKKWTSVIRLQKKVMELESKLNEAKEEFTSGGPLGQKRDPKEWIPRPPEKYALSGHRSPVTRVIFHPVFSVMVSASEDATIKVWDYETGDFERTLKGHTDSVQDISFDHSGKLLASCSADKTIKLWDFQGFECIRTMHGHKHNVSSVAIMPNGDHIVSASRDKTIKMWEVQTGADVKTFTGHREWVRMVRPNQDGTLIASCSNDQTVRVWVVATKECKAELREHEHVVECISWAPESSYSSISEATGSETKKSGKPGPFLLSGSRDKTIKMWDVSTGMCLMTLVGHDNWVRGVLFHSGGKFILSCADDKTLRVWDYKNKRCMKTLNAHEHFVTSLDFHKTAPYVVTGSVDQTVKVWECR
B2: Lis1^AAA6 (Lis1 N203K, D205K, Q222A) (natural protein)
chain: VLSQRQRDELNRAIADYLRSNGYEEAYSVFKKEAELDVNEELDKKYAGLLEKKWTSVIRLQKKVMELESKLNEAKEEFTSGGPLGQKRDPKEWIPRPPEKYALSGHRSPVTRVIFHPVFSVMVSASEDATIKVWDYETGDFERTLKGHTDSVQDISFDHSGKLLASCSADMTIKLWDFQGFECIRTMHGHDHNVSSVAIMPKGKHIVSASRDKTIKMWEVATGYCVKTFTGHREWVRMVRPNQDGTLIASCSNDQTVRVWVVATKECKAELREHEHVVECISWAPESSYSSISEATGSETKKSGKPGPFLLSGSRDKTIKMWDVSTGMCLMTLVGHDNWVRGVLFHSGGKFILSCADDKTLRVWDYKNKRCMKTLNAHEHFVTSLDFHKTAPYVVTGSVDQTVKVWECR
B4: Lis1^linker (Lis1 E300K, K303E, S304R, M329A) (natural protein)
chain: VLSQRQRDELNRAIADYLRSNGYEEAYSVFKKEAELDVNEELDKKYAGLLEKKWTSVIRLQKKVMELESKLNEAKEEFTSGGPLGQKRDPKEWIPRPPEKYALSGHRSPVTRVIFHPVFSVMVSASEDATIKVWDYETGDFERTLKGHTDSVQDISFDHSGKLLASCSADMTIKLWDFQGFECIRTMHGHDHNVSSVAIMPNGDHIVSASRDKTIKMWEVQTGYCVKTFTGHREWVRMVRPNQDGTLIASCSNDQTVRVWVVATKECKAELREHEHVVECISWAPESSYSSISEATGSKTKERGKPGPFLLSGSRDKTIKMWDVSTGACLMTLVGHDNWVRGVLFHSGGKFILSCADDKTLRVWDYKNKRCMKTLNAHEHFVTSLDFHKTAPYVVTGSVDQTVKVWECR

How the values were obtained:
[1] = target: full-length human dynein (cytoplasmic dynein-1), wild type (human) (UniProt Q14204); assay: cryo-EM structure
[2] = target: full-length human dynein (cytoplasmic dynein-1), wild type (human) (UniProt Q14204); assay: mass photometry
[3] = target: the molecule itself; assay: mass photometry
[4] = target: T1, human Lis1, wild type (human, UniProt P43034 2-410); assay: mass photometry
T1 sequence: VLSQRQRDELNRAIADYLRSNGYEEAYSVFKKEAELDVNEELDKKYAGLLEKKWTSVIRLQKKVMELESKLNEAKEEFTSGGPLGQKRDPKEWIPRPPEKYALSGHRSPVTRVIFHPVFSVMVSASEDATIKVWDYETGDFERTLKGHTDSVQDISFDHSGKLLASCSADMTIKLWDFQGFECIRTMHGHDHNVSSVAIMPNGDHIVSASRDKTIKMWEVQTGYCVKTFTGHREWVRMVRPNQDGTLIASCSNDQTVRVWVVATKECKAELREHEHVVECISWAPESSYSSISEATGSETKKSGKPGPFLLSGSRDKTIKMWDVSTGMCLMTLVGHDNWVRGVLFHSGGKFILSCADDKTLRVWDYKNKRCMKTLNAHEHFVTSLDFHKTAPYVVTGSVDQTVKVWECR

[5] = target: B4; assay: mass photometry
[6] = target: B1; assay: mass photometry
[7] = target: B2; assay: mass photometry

- percent of autoinhibited dynein particles in Phi^L-Lis1 [1]: 57.3%
- stoichiometry N (Lis1 dimer per dynein) [1]: 1
- percent of 1:1 dynein:Lis1 complex [2]: 37%
- percent of complex formation [2]: 69%
- stoichiometry N (Lis1 dimer per dynein) [2]: 1
- stoichiometry N (Lis1 per dynein) [2]: 1
Molecule: human Lis1, wild type (from UniProt P43034 2-410) (natural protein)

Molecule: B1
- stoichiometry N [3]: 2

Molecule: B2
- stoichiometry N [3]: 2

- binding result [4]: binds
- binding result [5]: binds
- binding result [6]: binds
- binding result [7]: binds
B3: human Nde1 (N-terminal residues 1-190) (domain or fragment)
chain: MEDSGKTFSSEEEEANYWKDLAMTYKQRAENTQEELREFQEGSREYEAELETQLQQIETRNRDLLSENNRLRMELETIKEKFEVQHSEGYRQISALEDDLAQTKAIKDQLQKYIRELEQANDDLERAKRATIMSLEDFEQRLNQAIERNAFLESELDEKENLLESVQRLKDEARDLRQELAVQQKQEKPR

Molecule: B4
- stoichiometry N [3]: 2
